This is an account of results in US8691772B2, “HSP60, HSP60 peptides and T cell vaccines for immunomodulation” (Yeda Research and Development Co. Ltd., priority 2005, dated 2014).

For assay [1], the system named is BALB/c lymph node-cells. Put plainly: T-cell migration assay towards SDF-1α, mouse lymph node cells. It counts as cell-based, BALB/c mice. The following applies: in vitro, HSP60 1 hr. The source says: (§1) Mice and mouse T cells. Female C57BL/6J were obtained from Harlan Olac (Bicester, U.K.). TLR2-knockout mice on the C57BL/6J background were kindly provided by Dr. S. Akira (Osaka University, Osaka, Japan). CD3^+ T cells were isolated by negative selection with anti-mouse antibody cocktail (Pan T cell kit; Miltenyi Biotec; CITY Germany). The labeled cells were then passed through separation columns (MidiMACS columns, Miltenyi Biotec). The purified cells (>97% T cells) were untreated or treated with HSP60 as described. Similarly, T cells were purified from the lymph nodes of BALB/c mice (females, 1.5 months of age).
T-cell migration assay. Migration of ^51[Cr]-labeled human and mouse T cells through FN or endothelial cells to recombinant human SDF-1α was examined in 48-well Transwell chemotaxis apparatus (5-μm pore filters, 6.5-mm diameter; Corning, N.Y.), as previously described (Zanin-Zhorov et al., 2003b). For transendothelial migration assays, 2×10^4 cells of HUVEC were layered on the filters and grown in 10% FCS M199 for 2 days before the performance of each assay. Then, HUVEC were stimulated with TNF-α (50 ng/ml) for 24 hr and washed.

The subject of assay [2] is human T cells. Description: In vivo homing assay of human T cells to bone marrow. Details: species or system NOD/SCID mice. The following applies: T cells pretreated (HSP60 1 μg/ml for 1 hr or mAb); 16 hr after injection. The method, then:
In vivo homing assay. Purified human T cells were incubated (1 hr, tissue culture conditions) with HSP60 (1 μg/ml) in tissue culture conditions. The cells were then washed with PBS, and, where indicated, further incubated (30 min, 4° C.) with mouse anti-human CXCR4 mAb (10 μg/3×10^6 cells), anti-human TLR2 or anti-TLR4 mAb (each at 20 μg/ml). The cells were then washed and injected (5×10^6 cells/0.5 ml per mouse) i.v. into the tails of irradiated (375 cGY from a ^60[Co] source), 8-week-old NOD/SCID mice, and the entrance of human T cells into the bone marrow of recipient mice was evaluated as previously described (Kollet et al., 2001). Each tested sample contained 1.5×10^6 cells.

The subject of assay [3] is SOCS3. Put plainly: SOCS3 expression in mouse lymphocytes / T cells (immunoblot). Format: cell-based. Particulars: for SOCS3 expression: 1 ng/ml, 1 hr.
From the text: as §1
Western blotting of T-cell lysates. T cells were incubated (24 hr, 37° C.) in starvation medium (RPMI medium without serum). Aliquots (5×10^6/sample) of the starved cells were preincubated (for various intervals) with different concentrations of HSP60 prior to exposure to SDF-1α (100 ng/ml, 10 min, 37° C., tissue culture conditions). These reactions were terminated by freezing the plates (−70° C., 10 min). The plates were thawed, and the cells solubilized by incubating (60 min, 4° C.) in lysis buffer [EDTA (0.5 mM), NaCL (150 mM), NaF (10 nM), Tris pH 7.5 (25 mM), Triton X-100 (1%), PMSF (200 pg/ml), and phosphatase inhibitor cocktail (1%)]. Lysates were cleared by centrifugation (30 min, 14×10^3 rpm, 4° C.), and the resulting supernatants analyzed for protein content. Sample buffer was added, the samples were boiled, and equal amounts of proteins were separated by 10% SDS-PAGE and transferred to nitrocellulose membranes. […] Phosphorylation levels of the 3-5 independent experiments were estimated by densitometry, and an average percentage of phosphorylation±SD was calculated as OD of pERK/tERK, or pPyk2/tPyk2, or pAKT/tAKT, pMLC/tMLC, or pSTAT3/tSTAT3×100%.
Background: In western blotting, separated proteins are transferred to a membrane and probed.

For assay [4], the system named is AKT, Pyk-2, p38, ERK, NF-κB, T-bet. Put plainly: Western blot analysis of CD4+CD25+ / CD4+CD25- T-cell lysates. It counts as cell-based, human. The source says: CFSE labeling of CD4^+CD25^− T cells. CD4^+CD25^− T cells were labeled with Vybrant™ CFDA SE Cell Tracer Kit (Molecular Probes; Eugene, Oreg.) according to the manufacturer's instructions. Labeled CD4^+CD25^− T cells were co-cultured with CD4^+CD25^+ T cells on anti-CD3 mAb, as described above, for 6 hr. After co-culture, CD4^+CD25^− T cells were isolated by sorting using a Becton Dickinson FACSVantage (Mountain View, Calif.).
Western blot analysis of T-cell lysates. Indicated populations of T cells (5×10^6) were preincubated with 1 ng/ml of HSP60 for 10 min (37° C. in a 7% CO2, humidified atmosphere). […] Total cell lysates, nuclear and cytoplasmic extracts were prepared as previously described (Zanin-Zhorov et al., 2003, section D of the Examples herein), analyzed for protein content. Sample buffer was then added and, after boiling, the samples, containing equal amounts of proteins, were separated on 10% SDS-PAGE gel and transferred to nitrocellulose membranes. The membranes were blocked and probed with the following mAb in the same buffer: anti-phosphorylated (p) ERK. […]

The test system of assay [5] is human T cells. Description: Cytokine secretion of anti-CD3-activated purified human T cells.
Experimental: Human T cells. T cells were purified from the peripheral blood of healthy human donors (Blood Bank; Tel-Hashomer, Israel). The whole blood was incubated (20 min, 22° C.) with RosetteSep™ human T-cell enrichment cocktail (StemCell Technologies, Vencouver, BC, Canada). The remaining unsedimented cells were then loaded onto Lymphocyte Separation Medium (ICN Biomedicals; Belgium), isolated by density centrifugation, and washed with PBS. The purified cells (>95% CD3^+ T cells) so obtained were cultured in RPMI containing antibiotics and 10% heat-inactivated FCS.
Cytokine secretion. T cells (2×10^6 cells per ml) were activated (1 hr, 37° C.) with the indicated concentrations of HSP60 in 24-well plates in RPMI containing 10% heat-inactivated FCS. The cells were then washed and re-plated at the same concentration on anti-CD3 mAb pre-coated 24-well plates (0.5 μg/ml; non tissue culture grade plates) in serum free medium containing 0.1% BSA at 4° C. for 24 hr. The supernatants were collected, and the cytokine content (TNF-α, IFN-γ, and IL-10) was determined by ELISA, using the appropriate mAb, according to the manufacturer's instructions.

B1: HSP60: recombinant human heat shock protein 60 (StressGen Biotechnologies) (protein)
chain: AKDVKFGADARALMLQGVDLLADAVAVTMGPKGRTVIIEQSWGSPKVTKDGVTVAKSIDLKDKYKNIGAKLVQDVANNTNEEAGDGTTTATVLARSIAKEGFEKISKGANPVEIRRGVMLAVDAVIAELKKQSKPVTTPEEIAQVATISANGDKEIGNIISDAMKKVGRKGVITVKDGKTLNDELEIIEGMKFDRGYISPYFINTSKGQKCEFQDAYVLLSEKKISSIQSIVPALEIANAHRKPLVIIAEDVDGEALSTLVLNRLKVGLQVVAVKAPGFGDNRKNQLKDMAIATGGAVFGEEGLTLNLEDVQPHDLGKVGEVIVTKDDAMLLKGKGDKAQIEKRIQEIIEQLDVTTSEYEKEKLNERLAKLSDGVAVLKVGGTSDVEVNEKKDRVTDALNATRAAVEEGIVLGGGCALLRCIPALDSLTPANEDQKIGIEIIKRTLKIPAMTIAKNAGVEGSLIVEKIMQSSSEVGYDAMAGDFVNMVEKGIIDPTKVVRTALLDAAGVASLLTTAEVVVTEIPKEEKDPGMGAMGGMGGGMGGGMF
Regarding B1, the “migration of mouse lymph node cells towards SDF-1α” value in assay [1] is recorded as “inhibited migration of mouse lymph node cells towards SDF-1α”. Also, in assay [2], the “homing of human T cells to the bone marrow” value is on record as “significantly (P<0.05) decreased their homing to the bone marrow”. Also, the “expression of SOCS3” value in assay [3] (BALB/c lymph node cells) was “induced the expression of SOCS3 in BALB/c lymph node cells”. The SOCS3 expression result in assay [3] (T cells from TLR2-knockout mice) was “SOCS3 expression remained at the low levels of untreated cells”. The SOCS3 expression result in assay [3] (wild type C57BL/6J-derived T cells) is “induced SOCS3 expression at levels similar to those induced by HSP60 in human T cells”. Also, the “phosphorylation of AKT, Pyk-2, and p38” value in assay [4] (CD4+CD25+ T cells, 1 ng/ml, 10 min) is “induced phosphorylation of AKT, Pyk-2, and p38”. The “ERK phosphorylation, NF-κB nuclear translocation and T-bet expression in CD4+CD25- T cells” value in assay [4] (co-culture with HSP60-treated CD4+CD25+ (1:9), anti-CD3, 6 hr) was “down-regulation of ERK phosphorylation, inhibition of nuclear translocation of NF-κB and T-bet expression”. Further, in assay [5], the “effect on cytokine secretion at doses in the order of 10 ng/ml” value is “did not appear to affect cytokine secretion”; the “secretion of IL-4 and IL-13” value is recorded as “increases the secretion”. Moreover, the “cytokine secretion without anti-CD3” value in assay [5] (HSP60 alone) is listed as “did not induce cytokine secretion from the T cells”. In assay [5] (P<0.05), the “higher concentrations at which cytokine secretion was again affected” value lay within 0.1 to 1 µg/mL and the “low concentrations with significant effects on cytokine secretion” value lay in the range of 0.1 to 1.0 ng/mL.
